We go through five substances from paper PMC9363410.

In experiment [1] the target is OsOTUB1-cat (OsOTUB1 residues 74 to 324, catalytic domain) (Oryza sativa).
For experiment [2] the target is unchanged. The experiment can be described thus: cross-linking; 20 µM DUB with 100 µM Ub-PA in gel filtration buffer (50 mM Tris-HCl pH 8, 150 mM NaCl, 2 mM DTT), 37 °C, samples at time points, SDS-PAGE, Coomassie. In general terms: SEC sorts molecules by how far they enter the pores of the column.

“Met1-diUb Q2A^prox (from UniProt P0CG48 1-76) (natural protein)”: the KM of OsOTUB1-cat for the variant, fold reduction of affinity against Met1-diUb WT (Michaelis-Menten kinetics by HPLC, two replicates) in experiment [1] is 3.65 to 4.3 fold.
Still for that read-out and setting: to “Met1-diUb Q2N^prox (from UniProt P0CG48 1-76) (natural protein)” belongs 1.52 to 1.91 fold.
In experiment [2], C-terminally propargylated Ub (Ub-PA) had a percent of Ub-PA crosslinked in 1 min above 90%.
Turning to “Met1-diUb Q2E^prox (from UniProt P0CG48 1-76) (natural protein)”, the KM of OsOTUB1-cat for the variant, fold reduction of affinity against Met1-diUb WT (Michaelis-Menten kinetics by HPLC, two replicates) in experiment [1] was 4.2 to 6.23 fold.
On to “Met1-diUb Q2H^prox (from UniProt P0CG48 1-76) (natural protein)”, for which the KM of OsOTUB1-cat for the variant, fold reduction of affinity against Met1-diUb WT (Michaelis-Menten kinetics by HPLC, two replicates) in experiment [1] lay in the range of 1.45 to 1.58 fold.
